Source: patent publication US20140357845A1 (published 2014)

Legend:
[1] = biological target: mini-H3 cluster1 + 2 + 3 + 4 + 5 + 6 + 7-N405A (influenza A virus H3N2, UniProt Q38SQ8 18-566); assay: FACS
[2] = biological target: mini-H3 cluster1 + 2 + 3 + 4 + 5 + 6 + 7-N405D (influenza A virus H3N2, UniProt Q38SQ8 18-566); assay: FACS

B1: CR9114 (antibody, V domains shown)
VH: QVQLVQSGAEVKKPGSSVKVSCKSSGGTSNNYAISWVRQAPGQGLDWMGGISPIFGSTAYAQKFQGRVTISADIFSNTAYMELNSLTSEDTAVYFCARHGNYYYYSGMDVWGQGTTVTVSS
VL: SYVLTQPPAVSGTPGQRVTISCSGSDSNIGRRSVNWYQQFPGTAPKLLIYSNDQRPSVVPDRFSGSKSGTSASLAISGLQSEDEAEYYCAAWDDSLKGAVFGGGTQLTVL
B1: no binding (tested: 5 microgram/ml) [1]; no binding (tested: 5 microgram/ml) [2].
